The source of these data is PMC11474037.

For this assay, the target named is insulin receptor (purified IR, consisting of α and β subunits) (human (cloned from HEK293T cells)) (UniProt P06213). The experiment in a line: SPR. (In SPR one partner is held on a chip, and binding of the other changes the refractive index at the surface.)

As usually defined, the Kd is the concentration at which binding is half-saturated. Higher therefore signals weaker binding.

For “HtB-mNG (insulin B chain fused to mNeonGreen) (domain or fragment)”, the Kd stood at 3.33 µM. That is a single-digit micromolar value.
